# In the supplement of paper PMC5998384:
# Tests used:
# [1] = system: HeLa Kyoto; experiment: solubility change mitosis vs G1/S (difference of NP-40 vs SDS log2 ratios) (log2 ratio difference); higher = more soluble in mitosis
# [2] = system: HeLa Kyoto; experiment: solubility in G1/S (NP-40 vs SDS abundance) (log2 ratio); higher = more soluble; details: cell cycle stage: G1/S
# [3] = system: HeLa Kyoto; experiment: melting temperature (median over replicates), in situ; higher = more thermally stable
# [4] = system: HeLa Kyoto; experiment: thermal stability score vs G1/S (z-score of summed log2 fold changes over temperatures); higher = more thermally stable than in G1/S
# [5] = cell cycle stage: early G1 (4.5 h after nocodazole release)
# 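Throughout, for melting temperature (median over replicates), in situ: HeLa Kyoto cells synchronized by double thymidine or nocodazole block, proteins quantified by TMT10plex mass spectrometry, three independent biological replicates.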
# 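Throughout, for solubility change mitosis vs G1/S (difference of NP-40 vs SDS log2 ratios): synchronized HeLa Kyoto cells (double thymidine block for G1/S, nocodazole release for mitosis), protein amounts in NP-40 versus SDS lysates quantified by mass spectrometry, three biological replicates.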
# 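Throughout, for solubility in G1/S (NP-40 vs SDS abundance): HeLa Kyoto cells arrested at G1/S by double thymidine block, proteins quantified by TMT10plex mass spectrometry in mild NP-40 versus SDS extracts, three biological replicates.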
# 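Throughout, for thermal stability score vs G1/S (z-score of summed log2 fold changes over temperatures): synchronized HeLa Kyoto cells, proteins quantified by TMT10plex mass spectrometry, three biological replicates, mitosis taken 0.5 h after nocodazole release, G1/S directly after double thymidine block.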
Sequence,solubility change mitosis (log2) [1],solubility in G1/S (log2) [2],melting temperature ([3]; cell cycle stage: G1/S) [°C],melting temperature ([3]; cell cycle stage: mitosis) [°C],"thermal stability score [4, 5]",thermal stability score ([4]; cell cycle stage: mitosis)
MVKIVTVKTQAYQDQKPGTSGLRKRVKVFQSSANYAENFIQSIISTVEPAQRQEATLVVGGDGRFYMKEAIQLIARIAAANGIGRLVIGQNGILSTPAVSCIIRKIKAIGGIILTASHNPGGPNGDFGIKFNISNGGPAPEAITDKIFQISKTIEEYAVCPDLKVDLGVLGKQQFDLENKFKPFTVEIVDSVEAYATMLRSIFDFSALKELLSGPNRLKIRIDAMHGVVGPYVKKILCEELGAPANSAVNCVPLEDFGGHHPDPNLTYAADLVETMKSGEHDFGAAFDGDGDRNMILGKHGFFVNPSDSVAVIAANIFSIPYFQQTGVRGFARSMPTSGALDRVASATKIALYETPTGWKFFGNLMDASKLSLCGEESFGTGSDHIREKDGLWAVLAWLSILATRKQSVEDILKDHWQKYGRNFFTRYDYEEVEAEGANKMMKDLEALMFDRSFVGKQFSANDKVYTVEKADNFEYSDPVDGSISRNQGLRLIFTDGSRIVFRLSGTGSAGATIRLYIDSYEKDVAKINQDPQVMLAPLISIALKVSQLQERTGRTAPTVIT [PGM1],-0.0698,0.266,57.6,58.3,-0.26,0.494
MVLESTMVCVDNSEYMRNGDFLPTRLQAQQDAVNIVCHSKTRSNPENNVGLITLANDCEVLTTLTPDTGRILSKLHTVQPKGKITFCTGIRVAHLALKHRQGKNHKMRIIAFVGSPVEDNEKDLVKLAKRLKKEKVNVDIINFGEEEVNTEKLTAFVNTLNGKDGTGSHLVTVPPGPSLADALISSPILAGEGGAMLGLGASDFEFGVDPSADPELALALRVSMEEQRQRQEEEARRAAAASAAEAGIATTGTEDSDDALLKMTISQQEFGRTGLPDLSSMTEEEQIAYAMQMSLQGAEFGQAESADIDASSAMDTSEPAKEEDDYDVMQDPEFLQSVLENLPGVDPNNEAIRNAMGSLASQATKDGKKDKKEEDKK [PSMD4],-0.0985,0.287,53.3,53.9,-0.808,-1.22
MVLESVARIVKVQLPAYLKRLPVPESITGFARLTVSEWLRLLPFLGVLALLGYLAVRPFLPKKKQQKDSLINLKIQKENPKVVNEINIEDLCLTKAAYCRCWRSKTFPACDGSHNKHNELTGDNVGPLILKKKEV [CISD2],0.0164,0.0551,54.2,54.7,-4.5,-5.22
MVLIKEFRVVLPCSVQEYQVGQLYSVAEASKNETGGGEGIEVLKNEPYEKDGEKGQYTHKIYHLKSKVPAFVRMIAPEGSLVFHEKAWNAYPYCRTIVTNEYMKDDFFIKIETWHKPDLGTLENVHGLDPNTWKTVEIVHIDIADRSQVEPADYKADEDPALFQSVKTKRGPLGPNWKKELANSPDCPQMCAYKLVTIKFKWWGLQSKVENFIQKQEKRIFTNFHRQLFCWIDKWIDLTMEDIRRMEDETQKELETMRKRGSVRGTSAADV [PITPNB],-0.0681,0.199,52.9,53.4,2.34,2.14
MVLLAAAVCTKAGKAIVSRQFVEMTRTRIEGLLAAFPKLMNTGKQHTFVETESVRYVYQPMEKLYMVLITTKNSNILEDLETLRLFSRVIPEYCRALEENEISEHCFDLIFAFDEIVALGYRENVNLAQIRTFTEMDSHEEKVFRAVRETQEREAKAEMRRKAKELQQARRDAERQGKKAPGFGGFGSSAVSGGSTAAMITETIIETDKPKVAPAPARPSGPSKALKLGAKGKEVDNFVDKLKSEGETIMSSSMGKRTSEATKMHAPPINMESVHMKIEEKITLTCGRDGGLQNMELHGMIMLRISDDKYGRIRLHVENEDKKGVQLQTHPNVDKKLFTAESLIGLKNPEKSFPVNSDVGVLKWRLQTTEESFIPLTINCWPSESGNGCDVNIEYELQEDNLELNDVVITIPLPSGVGAPVIGEIDGEYRHDSRRNTLEWCLPVIDAKNKSGSLEFSIAGQPNDFFPVQVSFVSKKNYCNIQVTKVTQVDGNSPVRFSTETTFLVDKYEIL [ARCN1],-0.0987,-0.104,51.7,51.8,1.07,0.0434
MVLLESEQFLTELTRLFQKCRTSGSVYITLKKYDGRTKPIPKKGTVEGFEPADNKCLLRATDGKKKISTVVSSKEVNKFQMAYSNLLRANMDGLKKRDKKNKTKKTKAAAAAAAAAPAAAATAPTTAATTAATAAQ [SRP14],0.409,0.1,53.6,52.6,-2.96,-4.66
MVLLRVLILLLSWAAGMGGQYGNPLNKYIRHYEGLSYNVDSLHQKHQRAKRAVSHEDQFLRLDFHAHGRHFNLRMKRDTSLFSDEFKVETSNKVLDYDTSHIYTGHIYGEEGSFSHGSVIDGRFEGFIQTRGGTFYVEPAERYIKDRTLPFHSVIYHEDDINYPHKYGPQGGCADHSVFERMRKYQMTGVEEVTQIPQEEHAANGPELLRKKRTTSAEKNTCQLYIQTDHLFFKYYGTREAVIAQISSHVKAIDTIYQTTDFSGIRNISFMVKRIRINTTADEKDPTNPFRFPNIGVEKFLELNSEQNHDDYCLAYVFTDRDFDDGVLGLAWVGAPSGSSGGICEKSKLYSDGKKKSLNTGIITVQNYGSHVPPKVSHITFAHEVGHNFGSPHDSGTECTPGESKNLGQKENGNYIMYARATSGDKLNNNKFSLCSIRNISQVLEKKRNNCFVESGQPICGNGMVEQGEECDCGYSDQCKDECCFDANQPEGRKCKLKPGKQCSPSQGPCCTAQCAFKSKSEKCRDDSDCAREGICNGFTALCPASDPKPNFTDCNRHTQVCINGQCAGSICEKYGLEECTCASSDGKDDKELCHVCCMKKMDPSTCASTGSVQWSRHFSGRTITLQPGSPCNDFRGYCDVFMRCRLVDADGPLARLKKAIFSPELYENIAEWIVAHWWAVLLMGIALIMLMAGFIKICSVHTPSSNPKLPPPKPLPGTLKRRRPPQPIQQPQRQRPRESYQMGHMRR [ADAM10],-0.0492,-0.0721,53.3,53.9,0.749,1.37
MVLLTMIARVADGLPLAASMQEDEQSGRDLQQYQSQAKQLFRKLNEQSPTRCTLEAGAMTFHYIIEQGVCYLVLCEAAFPKKLAFAYLEDLHSEFDEQHGKKVPTVSRPYSFIEFDTFIQKTKKLYIDSRARRNLGSINTELQDVQRIMVANIEEVLQRGEALSALDSKANNLSSLSKKYRQDAKYLNMRSTYAKLAAVAVFFIMLIVYVRFWWL [SEC22B],0.0289,-0.0184,51.3,52.2,4.24,5.81
MVLWILWRPFGFSGRFLKLESHSITESKSLIPVAWTSLTQMLLEAPGIFLLGQRKRFSTMPETETHERETELFSPPSDVRGMTKLDRTAFKKTVNIPVLKVRKEIVSKLMRSLKRAALQRPGIRRVIEDPEDKESRLIMLDPYKIFTHDSFEKAELSVLEQLNVSPQISKYNLELTYEHFKSEEILRAVLPEGQDVTSGFSRIGHIAHLNLRDHQLPFKHLIGQVMIDKNPGITSAVNKINNIDNMYRNFQMEVLSGEQNMMTKVRENNYTYEFDFSKVYWNPRLSTEHSRITELLKPGDVLFDVFAGVGPFAIPVAKKNCTVFANDLNPESHKWLLYNCKLNKVDQKVKVFNLDGKDFLQGPVKEELMQLLGLSKERKPSVHVVMNLPAKAIEFLSAFKWLLDGQPCSSEFLPIVHCYSFSKDANPAEDVRQRAGAVLGISLEACSSVHLVRNVAPNKEMLCITFQIPASVLYKNQTRNPENHEDPPLKRQRTAEAFSDEKTQIVSNT [TRMT5],-0.0856,0.289,57.7,56.1,-0.613,-0.00215
MVMAYFVENFWGEKNSGFDVLYHNMKHGQISTKELADFVRERATIEEAYSRSMTKLAKSASNYSQLGTFAPVWDVFKTSTEKLANCHLDLVRKLQELIKEVQKYGEEQVKSHKKTKEEVAGTLEAVQTIQSITQALQKSKENYNAKCVEQERLKKEGATQREIEKAAVKSKKATDTYKLYVEKYALAKADFEQKMTETAQKFQDIEETHLIHIKEIIGSLSNAIKEIHLQIGQVHEEFINNMANTTVESLIQKFAESKGTGKERPGLIEFEECDTASAVEGIKPRKRKTFALPGIIKKEKDAESVECPDADSLNIPDVDEEGYSIKPETNQNDTKENHFYSSSDSDSEDEEPKKYRIEIKPMHPNNSHHTMASLDELKVSIGNITLSPAISRHSPVQMNRNLSNEELTKSKPSAPPNEKGTSDLLAWDPLFGPSLDSSSSSSLTSSSSARPTTPLSVGTIVPPPRPASRPKLTSGKLSGINEIPRPFSPPVTSNTSPPPAAPLARAESSSSISSSASLSAANTPTVGVSRGPSPVSLGNQDTLPVAVALTESVNAYFKGADPTKCIVKITGDMTMSFPSGIIKVFTSNPTPAVLCFRVKNISRLEQILPNAQLVFSDPSQCDSNTKDFWMNMQAVTVYLKKLSEQNPAASYYNVDVLKYQVSSNGIQSTPLNLATYWKCSASTTDLRVDYKYNPEAMVAPSVLSNIQVVVPVDGGVTNMQSLPPAIWNAEQMKAFWKLSSISEKSENGGSGSLRAKFDLSEGPSKPTTLAVQFLSEGSTLSGVDFELVGTGYRLSLIKKRFATGRYLADC [FCHO2],0.0613,-0.0326,50.9,50.9,-0.516,0.0307
